PMC11040149

Biological target: RNA ligase from Palaeococcus pacificus (PpaRnl), wild-type (Palaeococcus pacificus)
Experiment: SEC

- stoichiometry N: 2
Substance: RNA ligase from Palaeococcus pacificus (PpaRnl), wild-type (enzyme)
